Data set [1] can be described thus: Heparanase enzymatic activity of constructs transiently expressed in COS-7 cells (radiometric or fluorimetric assay). Type of data set: biochemical. The conditions noted are these: for enzymatic activity: extracted by heparin affinity chromatography; for stability of the construct (conclusion from expression level): expression barely detectable by Western blot. How it is done: Cells were grown in Dulbecco's MEM (Gibco BRL, Gaithersburg, Md.). All constructs were cloned into the eukaryotic expression plasmid pcDNA3 (Invitrogen). A vector encoding the reporter gene β-lactamase (BLA) was co-transfected in order to check transfection efficiency of each construct. […] Transient transfection of COS7 cells was obtained using the fuGENE 6 Transfection Reagent (Roche, Basel, Switzerland) according to manufacturer's instructions. 24 hours after transfection, efficiency was assessed by fluorimetric detection of BLA-positive cells. 96 hours after transfection, cells were harvested and resuspended in lysis buffer (50 mM Tris-HCl pH 7.5, 150 mM NaCl, 0.5% Triton) containing Complete protease inhibitor cocktail (Roche). The lysis was carried out on ice for 30 minutes. After centrifugation at 14000 rpm for 30 minutes, the heparanase containing supernatants were recovered and partially purified as outlined below.
Heparanase constructs were expressed in COS-7 cells, which are devoid of endogenous heparanse activity, by transient transfection. Heparanase was extracted from cell lysates by heparin affinity chromatography and quantified on Western blots. In parallel, heparanase enzymatic activity was determined with either the radiometric or fluorimetric assay (FIG. 5). From Western blot analysis, we concluded that wt heparanase as well as the single chain constructs GS3 and hyaluro are efficiently expressed and processed, whereas constructs 106 and GS4 are expressed but not processed. Expression levels of constructs 109 and GS6 were extremely low and barely detectable by Western blot analysis. […] Since GS3 and hyaluro are active but are processed despite the changes that were introduced in the cleavage sites we can not draw any conclusion with respect to the intrinsic activity of the precursors. We therefore proceeded with the expression in cells that are devoid of the enzyme(s) responsible for heparanase processing.
(§1) Cell lysates from COS7 or Sf9 insect cells were passed through 500 μl Heparin Sepharose CL-6B (Amersham, Piscataway, N.J.) by gravity. The column was washed with 2 ml of lysis buffer, then with 2 ml of 50 mM Tris-HCl pH 7.5, 500 mM NaCl, and heparanase was eluted with 2 ml of 50 mM Tris-HCl pH 7.5, 1 M NaCl and concentrated about 5 fold with a Biomax-30K centrifugal concentrator (Millipore, Bedford, Mass.). 10% glycerol was added and the protein was stored in aliquots at −80° C. Protein concentration was determined using the BIO-RAD Protein Assay.
(§2) This assay is based on the degradation of FITC-HS monitored by HPLC size exclusion chromatography. 8 μl of purified heparanase was incubated with 5 μL of FITC-HS in a 50 μl of 50 mM MES pH 6, 10% glycerol (heparanase activity buffer, HAB). The reaction mixture was incubated at room temperature for a defined period and the reaction was stopped by the addition of 50 μg of heparin. The mixture was then filtered using Ultrafree-MC centrifugal filter Devices (Millipore). 20 μl were injected on a Superdex 75™ (Pharmacia Biotech) column equilibrated in buffer 50 mM Hepes pH 7.5 150 mM Na2SO4 and connected to a Merck-Hitachi HPLC system. Fluorescent heparan sulfate degradation products were detected by an L-7485 fluorescence detector. Heparanase activity was assessed by monitoring the increase in lower molecular weight heparan sulfate species compared with the intact FITC-HS and quantified by peak area integration.
This assay is based on the degradation of tritiated heparan sulfate immobilized on microplate. Each well of the Reacti-Bind Streptavidin High Binding Capacity Coated Plates was pre-treated according to manufacturer's instructions. Initially, different amounts of each fraction of tritiated, biotinylated heparan sulfate obtained after PD-10 desalting column were added to each well (in duplicate) in PBS to a final volume of 100 μl. […]

A short description of data set [2]: Heparanase enzymatic activity of constructs expressed in Sf9 insect cells (fluorimetric assay). The following applies: for pH and ionic strength dependence of the enzymatic activity: compared with wild type enzyme from COS-7 cells or HCT-116 cells; for enzymatic activity of the unprocessed purified protein: expressed in Sf9 cells, compared with correctly processed wild type enzyme from COS-7 cells. It is filed as biochemical. How it is done:
Recombinant baculoviruses containing the heparanase constructs were generated using the Bac to Bac expression system (Invitrogen). Recombinant baculoviruses were used to infect Sf9 insect cells (50×10^6 cells per T-175 flask) grown in Grace's insect medium with 10% FBS. Cells were collected 48 h after infection, and centrifuged at 500 g for 5 minutes. Cell lysates were prepared as above, except the lysis buffer contained 500 mM NaCl instead of the 150 mM used for COS7, which improved protein quantity in the soluble fraction.
The proteins were expressed in Sf9 cells and purified by heparin affinity chromatography.
as §1, §2

B1: GS4: single chain heparanase, W118-(GS)4-E143 spacer, protein SEQ ID NO:25 (protein)
chain: MLLRSKPALPPPLMLLLLGPLGPLSPGALPRPAQAQDVVDLDFFTQEPLHLVSPSFLSVTIDANLATDPRFLILLGSPKLRTLARGLSPAYLRFGGTKTDFLIFDPKKESTFEERSYWGSGAGSGAEWPYQEQLLLREHYQKKFKNSTYSRSSVDVLYTFANCSGLDLIFGLNALLRTADLQWNSSNAQLLLDYCSSKGYNISWELGNEPNSFLKKADIFINGSQLGEDFIQLHKLLRKSTFKNAKLYGPDVGQPRRKTAKMLKSFLKAGGEVIDSVTWHHYYLNGRTATREDFLNPDVLDIFISSVQKVFQVVESTRPGKKVWLGETSSAYGGGAPLLSDTFAAGFMWLDKLGLSARMGIEVVMRQVFFGAGNYHLVDENFDPLPDYWLSLLFKKLVGTKVLMASVQGSKRRKLRVYLHCTNTDNPRYKEGDLTLYAINLHNVTKYLRLPYPFSNKQVDKYLLRPLGPHGLLSKSVQLNGLTLKMVDDQTLPPLMEKPLRPGSSLGLPAFSYSFFVIRNAKVAACI
modifications: hep GS-A4
On to B1, for which, in data set [1], the enzymatic activity entry is “inactive”.

B2: 109: single chain heparanase linking the 8 and 50 kDa subunits directly, protein SEQ ID NO:20 (protein)
chain: MLLRSKPALPPPLMLLLLGPLGPLSPGALPRPAQAQDVVDLDFFTQEPLHLVSPSFLSVTIDANLATDPRFLILLGSPKLRTLARGLSPAYLRFGGTKTDFLIFDPKKEKKFKNSTYSRSSVDVLYTFANCSGLDLIFGLNALLRTADLQWNSSNAQLLLDYCSSKGYNISWELGNEPNSFLKKADIFINGSQLGEDFIQLHKLLRKSTFKNAKLYGPDVGQPRRKTAKMLKSFLKAGGEVIDSVTWHHYYLNGRTATREDFLNPDVLDIFISSVQKVFQVVESTRPGKKVWLGETSSAYGGGAPLLSDTFAAGFMWLDKLGLSARMGIEVVMRQVFFGAGNYHLVDENFDPLPDYWLSLLFKKLVGTKVLMASVQGSKRRKLRVYLHCTNTDNPRYKEGDLTLYAINLHNVTKYLRLPYPFSNKQVDKYLLRPLGPHGLLSKSVQLNGLTLKMVDDQTLPPLMEKPLRPGSSLGLPAFSYSFFVIRNAKVAACI
modifications: hep 109
Consider B2, for which, in data set [1], the “stability of the construct (conclusion from expression level)” value is recorded as “probably unstable”.

B3: 106: single chain heparanase linking the 8 and 50 kDa subunits directly, protein SEQ ID NO:17 (protein)
chain: MLLRSKPALPPPLMLLLLGPLGPLSPGALPRPAQAQDVVDLDFFTQEPLHLVSPSFLSVTIDANLATDPRFLILLGSPKLRTLARGLSPAYLRFGGTKTDFLIFDPKKFKNSTYSRSSVDVLYTFANCSGLDLIFGLNALLRTADLQWNSSNAQLLLDYCSSKGYNISWELGNEPNSFLKKADIFINGSQLGEDFIQLHKLLRKSTFKNAKLYGPDVGQPRRKTAKMLKSFLKAGGEVIDSVTWHHYYLNGRTATREDFLNPDVLDIFISSVQKVFQVVESTRPGKKVWLGETSSAYGGGAPLLSDTFAAGFMWLDKLGLSARMGIEVVMRQVFFGAGNYHLVDENFDPLPDYWLSLLFKKLVGTKVLMASVQGSKRRKLRVYLHCTNTDNPRYKEGDLTLYAINLHNVTKYLRLPYPFSNKQVDKYLLRPLGPHGLLSKSVQLNGLTLKMVDDQTLPPLMEKPLRPGSSLGLPAFSYSFFVIRNAKVAACI
modifications: hep 106
On to B3, for which the enzymatic activity result in data set [1] is “inactive”.

B4: GS6: single chain heparanase, subunits linked via (GS)6 spacer, protein SEQ ID NO:26 (protein)
chain: MLLRSKPALPPPLMLLLLGPLGPLSPGALPRPAQAQDVVDLDFFTQEPLHLVSPSFLSVTIDANLATDPRFLILLGSPKLRTLARGLSPAYLRFGGTKTDFLIFDPKKEGSGSGSGSGSGSKKFKNSTYSRSSVDVLYTFANCSGLDLIFGLNALLRTADLQWNSSNAQLLLDYCSSKGYNISWELGNEPNSFLKKADIFINGSQLGEDFIQLHKLLRKSTFKNAKLYGPDVGQPRRKTAKMLKSFLKAGGEVIDSVTWHHYYLNGRTATREDFLNPDVLDIFISSVQKVFQVVESTRPGKKVWLGETSSAYGGGAPLLSDTFAAGFMWLDKLGLSARMGIEVVMRQVFFGAGNYHLVDENFDPLPDYWLSLLFKKLVGTKVLMASVQGSKRRKLRVYLHCTNTDNPRYKEGDLTLYAINLHNVTKYLRLPYPFSNKQVDKYLLRPLGPHGLLSKSVQLNGLTLKMVDDQTLPPLMEKPLRPGSSLGLPAFSYSFFVIRNAKVAACI
modifications: hep GS-A6
For B4, in data set [1], the “stability of the construct (conclusion from expression level)” value is “probably unstable”.

B5: GS3: single chain heparanase, subunits linked via (GS)3 glycine-serine spacer, protein SEQ ID NO:21 (protein)
chain: MLLRSKPALPPPLMLLLLGPLGPLSPGALPRPAQAQDVVDLDFFTQEPLHLVSPSFLSVTIDANLATDPRFLILLGSPKLRTLARGLSPAYLRFGGTKTDFLIFDPKKEGSGSGSKKFKNSTYSRSSVDVLYTFANCSGLDLIFGLNALLRTADLQWNSSNAQLLLDYCSSKGYNISWELGNEPNSFLKKADIFINGSQLGEDFIQLHKLLRKSTFKNAKLYGPDVGQPRRKTAKMLKSFLKAGGEVIDSVTWHHYYLNGRTATREDFLNPDVLDIFISSVQKVFQVVESTRPGKKVWLGETSSAYGGGAPLLSDTFAAGFMWLDKLGLSARMGIEVVMRQVFFGAGNYHLVDENFDPLPDYWLSLLFKKLVGTKVLMASVQGSKRRKLRVYLHCTNTDNPRYKEGDLTLYAINLHNVTKYLRLPYPFSNKQVDKYLLRPLGPHGLLSKSVQLNGLTLKMVDDQTLPPLMEKPLRPGSSLGLPAFSYSFFVIRNAKVAACI
modifications: hep GS3
As for B5, in data set [1], the enzymatic activity entry is “showed enzymatic activity”. Moreover, in data set [2], the “pH and ionic strength dependence of the enzymatic activity” value was “undistinguishable from the wild type recombinant enzyme”; the “enzymatic activity of the unprocessed purified protein” value is on record as “highly active”.

B6: hyaluro: single chain heparanase with grafted loop region from hyaluronidase, protein SEQ ID NO:27 (protein)
chain: MLLRSKPALPPPLMLLLLGPLGPLSPGALPRPAQAQDVVDLDFFTQEPLHLVSPSFLSVTIDANLATDPRFLILLGSPKLRTLARGLSPAYLRFGGTKTDFLIFDPKKESTFEERSYWAFKDKTPEWPYQEQLLLREHYQKKFKNSTYSRSSVDVLYTFANCSGLDLIFGLNALLRTADLQWNSSNAQLLLDYCSSKGYNISWELGNEPNSFLKKADIFINGSQLGEDFIQLHKLLRKSTFKNAKLYGPDVGQPRRKTAKMLKSFLKAGGEVIDSVTWHHYYLNGRTATREDFLNPDVLDIFISSVQKVFQVVESTRPGKKVWLGETSSAYGGGAPLLSDTFAAGFMWLDKLGLSARMGIEVVMRQVFFGAGNYHLVDENFDPLPDYWLSLLFKKLVGTKVLMASVQGSKRRKLRVYLHCTNTDNPRYKEGDLTLYAINLHNVTKYLRLPYPFSNKQVDKYLLRPLGPHGLLSKSVQLNGLTLKMVDDQTLPPLMEKPLRPGSSLGLPAFSYSFFVIRNAKVAACI
modifications: hep Hya1
As for B6, the enzymatic activity entry in data set [1] is “showed enzymatic activity”. Moreover, in data set [2], the “pH and ionic strength dependence of the enzymatic activity” value is “undistinguishable from the wild type recombinant enzyme”; the “enzymatic activity of the unprocessed purified protein” value is “highly active”.
